Measurements as given in PMC3293900, “Single Cycle Structure-Based Humanization of an Anti-Nerve Growth Factor Therapeutic Antibody” (PLoS ONE, 2012).

What was measured:
[1] = biological target: T1, human Nerve Growth Factor (Homo sapiens, UniProt P01138); test: SPR; BIACore; hNGF amine-coupled on CM5 chips (89, 93, 100 RU); Fab hum-αD11 0.39-25 nM injected in HBSEP pH 7.4 with 100 µg/ml BSA, 50 µl/min; triplicate; apparent constants; settings: both partners purified
T1 construct: human Nerve Growth Factor (beta-NGF), mature growth factor; also called hNGF; human NGF; source: obtained according to Covaceuszach et al. [77]
T1 sequence (P01138 122-241): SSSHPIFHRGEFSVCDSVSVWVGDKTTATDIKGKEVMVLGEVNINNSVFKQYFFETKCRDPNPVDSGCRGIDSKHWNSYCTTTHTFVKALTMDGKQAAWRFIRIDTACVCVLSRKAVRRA

[2] = biological target: T1, human Nerve Growth Factor; test: SPR; BIACore; rat mAb αD11 amine-coupled on CM5 chips (1025, 1040, 1280 RU); hNGF 0.29-37.5 nM injected in PBS with 0.005% Surfactant P20, 30 µl/min; triplicate; apparent constants; settings: both partners purified

Ka [2] | Kd [2] | Binder | Ka [1] | Kd [1]
– | – | Fab fragment of the humanized anti-NGF antibody hum-αD11 (Fab, V domains shown, as the VH of m3 (hum-αD11 VH); constant part of the Fab heavy chain; not described for the Fab provided by PanGenetics; as the Vκ of m3 (hum-αD11 Vκ); positions L46 and L87 mutated to the rat αD11 residue, Kabat numbering; constant part of the Fab light chain; also called Fab hum-αD11; source: kindly provided by PanGenetics UK Ltd) VH: EVQLVESGGGLVQPGGSLRLSCAASGFSLTNNNVNWVRQAPGKGLEWVGGVWAGGATDYNSALKSRFTISRDNSKNTAYLQMNSLRAEDTAVYYCARDGGYSSSTLYAMDAWGQGTLVTVSS VL: DIQMTQSPSSLSASVGDRVTITCRASEDIYNALAWYQQKPGKAPKLLIYNTDTLHTGVPSRFSGSGSGTDYTLTISSLQPEDFATYFCQHYFHYPRTFGQGTKVEIK | 3.4e+10 M⁻¹ | 0.0289 ± 0.0041 nM
2.21e+09 M⁻¹ | 0.451 ± 0.045 nM | rat anti-NGF monoclonal antibody (mAb) αD11 (antibody, V domains shown, VH of rat αD11; rat heavy chain constant region; the CH1 part is in PDB 1ZAN (Fab); light chain of rat αD11; whole light chain in PDB 1ZAN (Fab αD11); Whole rat IgG; also called parental mAb αD11; rat αD11) VH: QVQLKESGPGLVQPSQTLSLTCTVSGFSLTNNNVNWVRQATGRGLEWMGGVWAGGATDYNSALKSRLTITRDTSKSQVFLKMHSLQSEDTATYYCARDGGYSSSTLYAMDAWGQGTTVTVSA VL: DIQMTQSPASLSASLGETVTIECRASEDIYNALAWYQQKPGKSPQLLIYNTDTLHTGVPSRFSGSGSGTQYSLKINSLQSEDVASYFCQHYFHYPRTFGGGTKLELK | – | –
